Measurements from publication PMC7352223 (2020).
No end group written: not given here.

Assays:
S100A1 = target: T1, S100A1 (Homo sapiens, UniProt P23297); experiment: fluorescence anisotropy
T1 chain: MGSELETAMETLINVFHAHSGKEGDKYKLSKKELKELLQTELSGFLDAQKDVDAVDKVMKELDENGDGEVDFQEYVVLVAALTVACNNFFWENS

Calmodulin = Calmodulin (Homo sapiens, UniProt P0DP23); experiment: fluorescence anisotropy

Row | Binder | Kd (S100A1) [nM] | Kd (Calmodulin) [nM]
1 | FGECYRSSEVRAARLLLRRCPL (cysteine pairing not given here; also: Ca2+) [TRPM4 (M4nt_WT)] | 2700 | 1300
2 | PFIVISHLRLLLRQLCRRPRS (also: Ca2+) [TRPM4 (M4ct_WT)] | 12000 | 2600
